According to publication PMC11503464, “Copper-61 is an advantageous alternative to gallium-68 for PET imaging of somatostatin receptor-expressing tumors: a head-to-head comparative preclinical study” (Frontiers in Nuclear Medicine, 2024):

Tests used:
[1] = assay type: physicochemical; conditions: pH 7.4
Procedure: Briefly, the radiotracer (10 µl, 1 µM) was added to 1 ml of a 1:1 pre-saturated mixture of 1-octanol and phosphate-buffered saline (PBS pH 7.4). The solution was vortexed for 30 min and then centrifuged at 3,000 rpm to achieve phase separation. Aliquots of 0.1 ml from each phase were collected and measured in a γ-counter. The distribution coefficient was calculated as the average of the logarithmic values (n = 3) of the ratio between the radioactivity in the organic and PBS phases. [^68Ga]Ga-DOTA-TOC was used as a reference.

HEK-SST2 xenografts [2] = conditions: female, athymic nude-Foxn1^nu/Foxn1^+, mouse, in vivo, 200 pmol, 1 h
[3] = Stability of labeling solutions at room temperature by radio-HPLC; assay type: physicochemical; conditions: labeling solution stored at room temperature
Procedure: An aliquot of DOTA-TOC or NODAGA-TOC (3–6 nmol, 1 mg/ml in TraceSelect water) was diluted in 0.25–0.30 ml ammonium acetate (0.5 M, pH 8), followed by the addition of [^61Cu]CuCl2 (30–150 MBq). The reaction mixture was incubated for 15 min at 95°C (DOTA-TOC) or at room temperature (NODAGA-TOC). The pH of the reaction mixture was between 5 and 6. Quality control was performed on a Shimadzu 2020 HPLC system connected to a Berthold radio detector (Flow Star 513).

HEK-SST2 xenografts [4] = assay: PET/CT in vivo specificity (DOTA-TOC pre-injection) in HEK-SST2 xenografts; design: species or system mice; conditions: PET/CT 1 h p.i.
Procedure: The mice were anesthetized with 1.5% isoflurane and dynamic PET scans were acquired from 0 to 1 h post-injection (p.i.). The mice were euthanized by CO2 at 4 h p.i., their bladders were mechanically emptied, and static PET scans were acquired for 30 min. […] The PET images were acquired in list mode using a small-animal PET scanner (β-CUBE, Molecubes, Ghent, Belgium) with a spatial resolution of 0.85 mm and an axial field-of-view of 13 cm. All PET scans were decay corrected and reconstructed into a 192 × 192 × 384 matrix by an ordered subsets maximization expectation (OSEM) algorithm using 30 iterations, a voxel size of 400 µm × 400 µm × 400 µm, and15 min per frame. Computed tomography (CT) data was used to apply attenuation correction on the PET data. The CT was imaged supine, headfirst, using the nanoSPECT/CT™ scanner (Bioscan Inc.). Topograms and helical CT scans of the whole mouse were first acquired using the following parameters: x-ray tube current: 177 µA, x-ray tube voltage 45 kVp, 90 s, and 180 frames per rotation, pitch 1. […] The specificity of the ^61Cu-labeled tracers was assessed in HEK-SST2 xenografts by administering DOTA-TOC (100 µl/200 nmol) 2–5 min pre-injection, followed by the injection of the radiotracer (100 µl/200 pmol/4 MBq). […]

HEK-SST2 cells [5] = assay: Efflux from HEK-SST2 cells; assay type: cell-based, human
Procedure: The efflux was studied after 1 h incubation of the cells with the radiotracer at 37°C and the removal of the unbound fraction and the cell membrane-bound fraction, as described above (acid-wash). The cells were then incubated with fresh medium at 37°C either alone or with a competitor (1,000-fold excess of DOTA-TOC, 2.5 µM/well) for 10, 20, 30, 45, 60, 90, 120, 150, 180, and 240 min. At each time point, the efflux (or retention) was measured after the removal of the medium without or with the competitor and replacement with fresh pre-warmed (37°C) medium alone or with the competitor. At the end of the experiment, the cells were detached using 1 M NaOH at 37°C and collected to determine the remaining cell-associated radiotracer.

HEK-SST2 cells [6] = assay: Cellular uptake and distribution on intact HEK-SST2 cells; assay type: cell-based, human; conditions: specific uptake, after 4 h at 37°C
Procedure: At the defined time points, the medium was removed, and the cells were washed twice with ice-cold PBS. The cells were then treated twice for 5 min with ice-cold glycine solution (0.05 M, pH 2.8) to detach the cell membrane-bound fraction (acid released). Afterward, the cells containing the internalized fraction were detached using NaOH 1 M at 37°C and collected for measurement. [^68Ga]Ga-DOTA-TOC was evaluated as a reference.

C[C@@H](O)[C@@H]1NC(=O)[C@H](CCCCN)NC(=O)[C@@H](Cc2c[nH]c3ccccc23)NC(=O)[C@H](Cc2ccc(O)cc2)NC(=O)[C@@H](NC(=O)[C@@H](Cc2ccccc2)NC(=O)CN2CCN(CC(=O)O)CCN(CC(=O)O)CCN(CC(=O)O)CC2)CSSC[C@@H](C(=O)N[C@H](CO)[C@@H](C)O)NC1=O [[^61Cu]Cu-DOTA-TOC] [metal not drawn]
log D(O/PBS pH 7.4) [1]: −2.81 ± 0.29
Heart uptake (HEK-SST2 xenografts [2]): 0.63 ± 0.07 %IA/g
Intestine uptake (HEK-SST2 xenografts [2]): 2.94 ± 0.15 %IA/g
Liver uptake (HEK-SST2 xenografts [2]): 3.59 ± 0.49 %IA/g
Radiochemical purity (%) 2 h ([3]; 2 h after end of synthesis): 96 ± 1%
Radiochemical purity (%) 4 h ([3]; 4 h after end of synthesis): 95 ± 1%
Abdominal uptake (liver and intestine) after high excess DOTA-TOC pre-injection (HEK-SST2 xenografts [4]): not suppressed
Efflux plateau in the absence of a competitor (HEK-SST2 cells [5]; after 2 h, 37°C, no further increase at 4 h): approximately 40%
Efflux with competitor (HEK-SST2 cells [5]; after 4 h at 37°C, DOTA-TOC (competitor) added to the medium): 80%
Cellular uptake (surface bound + internalized) (HEK-SST2 cells [6]): 78.3 ± 1.3%
